Reference: the supplement of paper PMC9732359
± gives the uncertainty stated by the source.

Assay: protein stability index of a GFP-peptide fusion (yeast GPS) (PSI 1-4); higher = more stable; sorted into four equal gates, so the index is relative within each strain
Procedure, shortened: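 Yeast carrying a pooled library were grown to mid-log phase in leucine-free medium. Each library plasmid expresses Cherry and has a tiled 17-residue yeast protein peptide fused downstream of GFP. Cells were sorted into four equal gates by GFP/Cherry ratio, and plasmids from each gate were PCR-amplified, Illumina-sequenced and assigned to strains by barcode. Summing, across gates, the read frequency times the gate number gave each peptide's protein stability index.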

| Sequence | protein stability index (doa10∆) | protein stability index (pdr5∆) | protein stability index (san1∆) | protein stability index (ubr1∆) |
| --- | --- | --- | --- | --- |
| LTRQPTEGRSRDGGLRL [RET1] | 2.07 ± 0.07 | 2.14 ± 0.077 | 2.06 ± 0.15 | 2.01 ± 0.059 |
| GIIEPSLKALASKYNCD [RPL40A] | 3.44 ± 0.17 | 3.27 ± 0.23 | 3.09 ± 0.085 | 3.19 ± 0.2 |
| LVTAGVAAAGITASTLL [CYT1] | 1.57 ± 0.058 | 1.76 ± 0.066 | 1.62 ± 0.098 | 1.67 ± 0.044 |
| ILKLLNGFMESAIVNED [SOH1] | – | 3.27 ± 0.18 | 3.41 ± 0.17 | 3.57 ± 0.22 |
| VQLRYGDYDSHDISRYV [PRP8] | 2.41 ± 0.062 | 2.46 ± 0.064 | 2.69 ± 0.075 | 2.09 ± 0.044 |
| YLVEAPWNDDYPFLLSF [YML103C/NUP188] | 1.4 ± 0.048 | 1.69 ± 0.066 | 1.43 ± 0.097 | 1.61 ± 0.072 |
| SATPNAAAFSQQQNASS [GAL11] | 2.94 ± 0.063 | 3.1 ± 0.054 | 2.89 ± 0.035 | 3.09 ± 0.041 |
| KNSTSSMTAVPKPLKFL [RPN1] | 2.03 ± 0.071 | 2.31 ± 0.072 | 1.98 ± 0.062 | 2.15 ± 0.069 |
| PTSAQKSAVSHAPAYHR [IRR1] | 2.81 ± 0.14 | 2.69 ± 0.12 | – | 2.89 ± 0.062 |
| VKLQMIKFGGLIIQKIP [ECM29] | 2.48 ± 0.059 | 1.89 ± 0.065 | 1.48 ± 0.07 | 2.37 ± 0.049 |
| KRCVGVILGDANSSTIR [RPN8] | 2.85 ± 0.042 | 2.77 ± 0.051 | 2.82 ± 0.061 | 2.94 ± 0.039 |
| PSCVYNLIGVITHQGAN [UBP6] | 2.64 ± 0.14 | 2.9 ± 0.13 | 2.99 ± 0.13 | 2.48 ± 0.18 |
| LLSDVNQNQRNVNETMS [SMC3] | 3.06 ± 0.12 | 2.89 ± 0.054 | 3.04 ± 0.062 | 3.01 ± 0.082 |
| KARNGLDYVRTPAAATS [SNF2] | 2.4 ± 0.059 | 2.44 ± 0.072 | 2.12 ± 0.08 | 2.35 ± 0.049 |
| VINLKQIAKFVVGLGER [RPT1] | 2.75 ± 0.14 | 3.39 ± 0.18 | 3.12 ± 0.3 | – |
| KVQDAIEEEIFDDSSRI [LIN1] | 3.07 ± 0.1 | 3.19 ± 0.11 | 3.16 ± 0.081 | 3.06 ± 0.069 |
| IIKRSNGQSLSPVRSDS [YMR153W/NUP53] | 2.64 ± 0.093 | 2.87 ± 0.058 | 2.76 ± 0.064 | 2.81 ± 0.037 |
| HKHNIMKNENANPKKLA [CDC53] | 2.14 ± 0.042 | 2.31 ± 0.049 | 2 ± 0.064 | 2.35 ± 0.057 |
| MNTTLGSIGSRKYSFNY [YAR002W/NUP60] | 1.75 ± 0.06 | 2.29 ± 0.066 | 1.87 ± 0.095 | 1.41 ± 0.041 |
| KTKWDRKPMGKRINFEK [POP1] | 2.84 ± 0.11 | 3.35 ± 0.075 | 2.75 ± 0.23 | 3 ± 0.17 |
| NAKRSHMMKRWGYQMVW [POP1] | 1.97 ± 0.052 | 2.38 ± 0.056 | 2.69 ± 0.077 | 2.67 ± 0.055 |
| NALWILVDLVSHFSPDI [ITC1] | 1.55 ± 0.07 | 1.56 ± 0.079 | 1.67 ± 0.11 | 1.95 ± 0.051 |
| SFTLLNQLSQTNKLLFK [NUT1] | 2.81 ± 0.09 | 2.35 ± 0.055 | 2.71 ± 0.077 | 2.33 ± 0.057 |
| FVDENTFQRVCQYMVAC [RPN1] | 3.09 ± 0.074 | 2.59 ± 0.072 | 2.77 ± 0.095 | 2.99 ± 0.091 |
| AQQVPPYGVYHPPFIKY [SIN4] | 2.99 ± 0.12 | 1.61 ± 0.094 | 2.33 ± 0.074 | 2.18 ± 0.069 |
| IIGHNPDENKTRVRLPS [RPL2A] | 2.93 ± 0.074 | 3.09 ± 0.077 | 2.93 ± 0.046 | 3 ± 0.048 |

| Sequence | protein stability index (doa10∆) | protein stability index (pdr5∆) | protein stability index (san1∆) | protein stability index (ubr1∆) |
| --- | --- | --- | --- | --- |
| TRLTAYQELAYRATSLD [YML031W/NDC1] | 3.13 ± 0.11 | 3.01 ± 0.11 | 3.32 ± 0.072 | 3.04 ± 0.11 |
| GGIVTVRSEMGEPIHKI [FAS1] | 3.29 ± 0.18 | 2.91 ± 0.21 | – | – |
| KDLKFPLPHRVQKSTKT [RPL20A] | 2.27 ± 0.053 | 2.68 ± 0.05 | 2.58 ± 0.052 | 2.69 ± 0.043 |
| AEEEEESDDDMGFGLFD [RPP0] | 3.36 ± 0.09 | 2.96 ± 0.12 | 3.24 ± 0.046 | 3.25 ± 0.065 |
| NDGNNRTNNVPMIKAEE [NUT1] | 3.05 ± 0.17 | 3.31 ± 0.14 | 2.65 ± 0.17 | 3.77 ± 0.16 |
| ADVKGVCTEAGMYALRE [RPT6] | 1.82 ± 0.08 | 2.23 ± 0.094 | 1.97 ± 0.12 | 1.27 ± 0.27 |
| PNSGTATTGGFGANQAT [YGR119C/NUP57] | 2.12 ± 0.084 | 2.33 ± 0.07 | 2.12 ± 0.091 | 2.14 ± 0.067 |
| RMPIMLRSNKCILYDAD [RET1] | 1.23 ± 0.15 | 1.41 ± 0.11 | 1.25 ± 0.25 | 1.77 ± 0.095 |
| GEITKTENEKFISYHDK [NUT1] | 3.31 ± 0.097 | 3.35 ± 0.077 | 3.39 ± 0.057 | 3.17 ± 0.079 |
| STMKENKDLSELVIRLE [YIL149C/MLP2] | 3.08 ± 0.08 | 3.1 ± 0.082 | 3.16 ± 0.065 | 3.09 ± 0.069 |
| LGVASFHGTSTKANDKN [FAS2] | 3.09 ± 0.079 | 2.95 ± 0.092 | 3.11 ± 0.075 | 3.02 ± 0.069 |
| EGQIIQRSNISTAIKSL [CDC53] | 1.55 ± 0.056 | 2.33 ± 0.099 | 2.46 ± 0.16 | 1.79 ± 0.079 |
| AKLIRSAIEHTTLKSVT [RPO21] | 3.46 ± 0.15 | 2.96 ± 0.2 | 3.19 ± 0.19 | 3.04 ± 0.12 |
| QRKTNGASNGDDSNGGN [BRN1] | 3.12 ± 0.14 | 2.92 ± 0.23 | 3.71 ± 0.17 | 3.64 ± 0.15 |
| SENRNNIKSSISNGNLA [YOR098C/NUP1] | – | 3.65 ± 0.24 | 2.96 ± 0.22 | 3.17 ± 0.24 |
| SNDNLDLISEILKWVQW [MED1] | 3.03 ± 0.057 | 2.92 ± 0.058 | 2.9 ± 0.051 | 3.09 ± 0.047 |
| KFMELERKTLERQQENL [SWI3] | 2.76 ± 0.17 | 3.23 ± 0.1 | 3.06 ± 0.09 | 3.12 ± 0.071 |
| SKKISNTAAALVSLLDE [YAR002W/NUP60] | 2.9 ± 0.095 | 2.67 ± 0.086 | 2.92 ± 0.052 | 2.78 ± 0.07 |
| IKQTFKNDLFVIWSEDN [RPO21] | 2.13 ± 0.057 | 2.32 ± 0.063 | 2.31 ± 0.058 | 2.36 ± 0.056 |
| PGTIVLYAERVQDRGLS [RPS3] | 2.87 ± 0.06 | 2.99 ± 0.056 | 2.62 ± 0.085 | 3.17 ± 0.041 |
| NCVNDVLEFCKDYEAKT [POP1] | 3.2 ± 0.075 | 3.45 ± 0.083 | 3.14 ± 0.072 | 3.32 ± 0.051 |
| MVPKRSTIITKAINQEL [YCS4] | 1.39 ± 0.1 | 1.88 ± 0.062 | 1.58 ± 0.09 | 2.24 ± 0.068 |
| YYEQFRPDLIKEDHPLE [SIR3] | 2.68 ± 0.058 | 2.73 ± 0.066 | 3.02 ± 0.043 | 2.67 ± 0.046 |
| KDRIIDERTKEFEKKLQ [YIL149C/MLP2] | 3.23 ± 0.21 | 3.06 ± 0.19 | 2.94 ± 0.086 | 3.42 ± 0.1 |
| TKDIFPLQNIHVRKVKL [RPS1A] | 2.4 ± 0.084 | 2.81 ± 0.097 | 2.6 ± 0.072 | 2.84 ± 0.09 |
| ADVLAMAKVEVNLAAIP [RIP1] | 1.84 ± 0.12 | 1.99 ± 0.13 | 1.82 ± 0.22 | 2.05 ± 0.077 |
